Source: the supplement of paper PMC9170038

Test system: K4 kissing-loop RNA reporter
Test: apparent KD of K4 kissing-loop reporter; higher = weaker reporter binding
Conditions: Eterna round: R107
Description: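 RNA-MaP round R107: designed RNA switches with theophylline, tryptophan, arginine or FMN aptamers are transcribed on-chip within common flanks. They are titrated with a labelled K4 kissing-loop RNA reporter in RNA-MaP buffer (100 mM Tris pH 7.5, 80 mM KCl, 4 mM MgCl2), without ligand or with the indicated ligand. Median apparent KD per design.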

[1] = input ligand: theophylline 20 uM
[2] = input ligand: tryptophan 2.4 mM
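Also: bound reporter read as fluorescence of individual clusters on recovered sequencing chips by microscopy, with normalized cluster intensities fitted with a binding model.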

| Sequence | apparent KD of K4 kissing-loop reporter (input ligand: FMN 200 uM) [µM] | apparent KD of K4 kissing-loop reporter (input ligand: arginine 13.2 mM) [µM] | apparent KD of K4 kissing-loop reporter (input ligand: none) [µM] | apparent KD of K4 kissing-loop reporter [1] [µM] | apparent KD of K4 kissing-loop reporter [2] [µM] |
| --- | --- | --- | --- | --- | --- |
| UUAGAGGCCCAGUGAUGUUGGGUGGUUGGGCGAGGACCGGUACGGCCGCCACUCGCCGCGGAACUAUCGGAAUCUCGCUCGGCUA [Aninxearqu] | 0.277 | 0.233 | 0.239 | 0.309 | 0.256 |
| UCUGGUAUAUCUGAUACCAGAGUAUAGUAUCAAUUGCAUAUCCGCAGUGAUGUUGCGGAACUCCCUUGGCAGCAGAUCUAUCUCU [Same State Theophylline B GF 26] | 0.0716 | 0.0906 | 0.0818 | 0.0868 | 0.07 |
| UUCUUGAUGGAAACAUCGAGUAUUACUGAUACCAGUAUCGAUAGAUACCCUUGGCAGCAGAAUCAGUAAUAACGAGUGAUGUUCG [Ex Theophylline A K4 5] | 0.509 | 0.494 | 0.505 | 0.567 | 0.48 |
| UGAUAGGAGAGAAGGAGCGGGAGUGAUGUUCCCAAAGAUUGGUCUAGCAAAGCUGGACCCUCCCAGGUAGGUCGCUCUCCUAUCU [KL-XARG-B16] | 0.382 | 0.419 | 0.434 | 0.405 | 0.357 |
| GGAUCCACCAGUGAUGUUGGAGAAAACUCAAAGGAUAUGACGAAAGUCAGAAGGUUGUAGACUGGACAAAGUCCGGUCGGAUCCA [FmnA 19 A30+U56] | 0.45 | 0.504 | 0.65 | 0.613 | 0.475 |
| AACGGCCAGUCGGCCGCCACUCGAUGCAGUGAUGUUGCUAACUUUCUAAAAGAGUGAUGUUCAUGGAGGACCGGGACUAAUGUAA [#29 K4 Tryptophan B Exclusion] | 0.349 | 0.298 | 0.346 | 0.382 | 0.228 |
| AAAUCGUUCAGAAGGAGCGUGGUAUAAUCAUUAAUAUUUAUUACGAGUGAUGUUCGUAAUUCACAGGUAGGUCGCUGAUCGAUAA [JR_SSArginiB_Sub006] | 0.0886 | 0.0946 | 0.086 | 0.0998 | 0.0827 |
| GAGGCCAAACGGAGUGAUGUUUCGUAUGAUACCAGCAGCGAAAGCUGCCCUUGGCAGCAUGCCACGGCCUCGGCAGGAAACUGCC | 0.401 | 0.322 | 0.358 | 0.371 | 0.339 |
| AGGGUUUAGGACGAUACCAGCCUGGAGGCCAGUGAUGUUGGCCGAUUUGAACAGAAUUAAGGCCCUUGGCAGCGUAUCUAAAACC [Esamaza] | 0.28 | 0.291 | 0.32 | 0.161 | 0.259 |
| GCUAUGGUAGGAAGGAGCGCUUAAUUACUAAUAAGAGUGAUGUUCGAUAGUAGGUAUUUAUAGCAGGUAGGUCGCCUACUAUAGC [KL-Arg B23] | 0.2 | 0.171 | 0.176 | 0.244 | 0.174 |
| GAGUUUCGUAAAGGAUAUUCUAGCUAAAGCCAUUAGUGAUGUUGAUGUACGGACGGAAGCCUGGCAGAAGAAGGUUAACAGGAUU [theeternabot_sameState_KL_FMN_B_24] | 0.708 | 0.326 | 0.41 | 0.42 | 0.312 |
| CGAGUGAUGUUCGUUCGUUUAUUUCGUUGACAGGAUAUGCGGAAACGCAGAAGGGUCACCUUUGAGUUAACGGAAUUUACGUUAU [Ex FMN A 27] | 0.614 | 0.487 | 0.587 | 0.552 | 0.546 |
| UCCAAUAUUUAUUGAUCCGCCUCGCAUCAACGAGGACCGGUACGGCCGCCACUCGUGCCUAGGUAGUGAUGUUACUUAGUUUACU [theeternabot_sameState_KL_Trp_A_32] | 0.0932 | 0.162 | 0.114 | 0.188 | 0.196 |
| CACUCGGUAUCAGAUACCAGACUAACGAUACCGAGUGUAUCGGGUAGUGAUGUUACCAUAGUCCCUUGGCAGCUGAUAUACCAUA [Theo B SS t9] | 0.249 | 0.242 | 0.265 | 0.269 | 0.223 |
| UGCAGUGAUGUUGCUAUUUUUCUUGAUUAACGAGGACCGGUACGGCCGCCACUCGAUUUCUCUCUAAUCCAGUAUGUUGUUUAGU [JR_ExcTryptoA_Sub001] | 0.111 | 0.144 | 0.121 | 0.14 | 0.0904 |
| GCCGUACGCAUGGAUACCAGAUCUAGACGCUUAGUGAUGUUAAGUAAUCUGGUUAGACCGAUCCCUUGGCAGCCAUGCGUACGGC | 0.27 | 0.199 | 0.229 | 0.203 | 0.2 |
| AAUGGAGGCUGAAGGAGCGCCGCCAGUGAUGUUGGGAGUUAGAUACCAGUGAUGUUGGGCCGGCAGGUAGGUCGCGGUUUUUAUU [Exclusion Arginine B Gf 16] | 0.186 | 0.0784 | 0.136 | 0.153 | 0.126 |
| GGGCGCGGCGCGGCCGCCACUGGGCCUGGGCGCUCGCUGAGUGAUGUUCGUCGGCGGCUGGGUCGUAGGACCGGGUGCCGGCUGG [BDazzled - #4 SS Tryptophan B] | 0.735 | 0.533 | 1.32 | 0.627 | 0.269 |
| GGUUCCUCAGUGAUGUUGAGGUGACCUCGGCAGGAUAUAGGCAUUACUAGAAGGGCCAAAAGAACCCUGUCCAGCGACACAGGGA [Zalatiat] | 0.159 | 0.238 | 0.305 | 0.25 | 0.232 |
| UCUGGAGCGUAUGAUACCAGCAGAGAGAGACAGGAAGUAUAGUGAUGUUAUAUGAGAGAAUGCCCUUGGCAGCGUGUGCAGUGGC [#26 K4 Theophylline B Same State] | 0.0559 | 0.0565 | 0.0668 | 0.0534 | 0.048 |
| CUCGAGUGAUGUUCGAUUAUGUAUACAGAUACCAGUGAAUUUUAACACCCUUGGCAGCUGGUAGAAUCUUUGUAAUUUUAACUAG [JR_ExcTheophyA_Sub002] | 0.162 | 0.253 | 0.18 | 0.23 | 0.134 |
| ACGUCAUCAAAAGGAUAUGCAUCGAAGUGAUGUUUCGUCAUAUCAGUCUGAUUGCAGCAAUUAGGAGCAGAAGGUUUAGUCCGGU [theeternabot_exclusion_KL_FMN_B_11] | 0.0916 | 0.0807 | 0.0919 | 0.0776 | 0.0831 |

| Sequence | apparent KD of K4 kissing-loop reporter (input ligand: FMN 200 uM) [µM] | apparent KD of K4 kissing-loop reporter (input ligand: arginine 13.2 mM) [µM] | apparent KD of K4 kissing-loop reporter (input ligand: none) [µM] | apparent KD of K4 kissing-loop reporter [1] [µM] | apparent KD of K4 kissing-loop reporter [2] [µM] |
| --- | --- | --- | --- | --- | --- |
| UGAUAGGACAGAAGGAGCGGCAGUGAUGUUGCCAAAAGGAUAAGGUGUCAAAAGACACCCUGCCAGGUAGGUCGCUGUCCUAUCU | 0.179 | 0.366 | 0.259 | 0.298 | 0.208 |
| GACAUCUAUCGCCGAUAGUGUUUAUCUUGGGAGGAUAUGUCAGCGGACAGAAGGCCCAGUGAUGUUGGGUAGAUGACCGUUGCUU [Edbiza] | 0.242 | 0.114 | 0.135 | 0.127 | 0.12 |
| UAGCGGUGGAGGCCACCGCUAUUCUGAGAAGGAGCGCAGAUGACUGCAGGUAGGUCGCUUAGAGCUUGCAGUGAUGUUGCAAGUU [Araatlaqu] | 0.191 | 0.144 | 0.191 | 0.223 | 0.177 |
| UUGGCAGUGAUGUUGCCAGAGCUCACCGAAGGAGCGCGUGAAAACGCAGGUAGGUCGCGGUAGCGGAGUGAUUCUCCGCGAGGGC [Same State Arginine A GF 21] | 0.0445 | 0.0717 | 0.0772 | 0.0803 | 0.0879 |
| CUUGGUGGCUACAUCAGGAAUUGCGGCGGAAAGGAUAUUCAUUGGCGAAGAAGGUUCCAAGUGACGAGUGAUGUUCUUCGUAAGG [theeternabot_sameState_KL_FMN_A_13] | 0.422 | 0.434 | 0.802 | 0.579 | 0.779 |
| CACCGCAACUGAAGGAGCGCGCCAGUGAUGUUGGACGGCUUUGUCAAGGAAACUGCACCGGUGCAGGUAGGUCGCAGUUCGCGGC [Ededisa] | 0.319 | 0.256 | 0.366 | 0.278 | 0.259 |
| CCGGGCGGCCGAAGGAGCGGGCGGACCCGAGUGAUGUUCGGGUGGACCGUGAGGUCCGGUGCCCAGGUAGGUCGCGGUUCCGCCC [#2 Same State - Arginine B Attempt #5 (HarryS)] | 0.117 | 0.123 | 0.129 | 0.118 | 0.12 |
| UUUCGUCUCUGAGGAUAUCAGAAUAGAGUGAUGUUCUAUCAAAGCCCAGUGAUGUUGGAUGCUAUCUGAGAAGGCAGUGGGCGAG [Same State FMN B GF 11] | 0.196 | 0.183 | 0.249 | 0.185 | 0.219 |
| UGGACCAGGAGUGAUGUUCCAAAAUGUGAUACCAGCCACGAAAGUGGCCCUUGGCAGCACUGCCAGGACGAAAACGUCCGGUCCU [#SwitchBubble 11 #StaticStem #K4Early] | 0.285 | 0.191 | 0.278 | 0.268 | 0.154 |
| CCGCUGCCCUCAGGAUAUUAAGUAUUAGUGAUGUUAGUAAACCGAUGGCGAAAGCCAUCGGUAUGUUGAGAAGGGAGGGUAGCGG [whbob_SS_FMNB__2th199] | 0.37 | 0.627 | 0.662 | 1.14 | 0.55 |
| GUGCGGUGGAGGCUACCGCUACUCUGAGAAGGAGCGCAGAAGACUGCAGGUAGGUCGCUUAGAGCUUGCAGUGAUGUUGCAAGUU [KL-SSArg-A18] | 0.134 | 0.135 | 0.183 | 0.156 | 0.176 |
| AAAAUAAGCCAGUGAUGUUGGUAGCCAGAUACCAGCGACGAAAGUCGCCCUUGGCAGCUGUGGACGUACAAAAUAAGUACGUCCU | 1.01 | 0.751 | 0.928 | 0.711 | 0.723 |
| AGUGUUAGGUUAGAUACCAGCCGUCUAUGGAUAAUCCUCAGACCGCCAGUGAUGUUGGCAGGCCCUUGGCAGCUAACAGAACAGA [Reinonor] | 0.202 | 0.218 | 0.24 | 0.164 | 0.213 |
| AGUAAUCUCACGGCCGCCACUGUUUAUUGUUUUUAUAGUUAUAAAUCUUGCCAGUGAUGUUGGUACAGGACCGGGUGAGUUAAUA [#25 K4 Tryptophan B Same State] | 0.357 | 0.36 | 0.402 | 0.353 | 0.316 |
| CGGAUGUAGUGAUGUUAUAUUAGAUGUAGACGAGGACCGGUACGGCCGCCACUCGUGAUGGCUGCUAGCACGUUUCGAUGUUUGC [ExTryptoA.Cq] | 0.669 | 0.483 | 0.624 | 0.611 | 0.434 |
| UGCAGUGAUGUUGCUAUUUGUCUUGAUUAACGAGGACCGGUACGGCCGCCACUCGAUUUCUCUCUAAUCGAGUAUGUUGUUUAGU [#19 K4 Tryptophan A Exclusion] | 0.153 | 0.184 | 0.162 | 0.203 | 0.114 |
| UGAUACCAGACUGAUACCAGCGAGUGAUGUUUGCUGAUCUAAAGCAGUCAAAGACUGCCUUGCCCUUGGCAGCAGUCUGGUAUCU [TheoBX 26 #SwitchBubble #StaticStem] | 0.294 | 0.235 | 0.275 | 0.351 | 0.264 |
| UGUCAUUGGUCGGCCGCCACUAUAAUAAAAGAGUGAUGUUCUAAAAGACGGACAAAAGUCUGUCAUAGGACCGGGACCGAUGACU [TrypBS 25 #SwitchBubble #StaticStem] | 0.822 | 0.43 | 0.589 | 0.131 | 0.616 |
| AGAACUGUCUUGGAUACCAGUGAUGUUGGUAUCGAUGUGUGAGUGCAAAGCGUCCCACAUUGCCCUUGGCAGCUAAGACUGUUCA [Omei KL Theo B Exc A v3] | 0.158 | 0.134 | 0.148 | 0.179 | 0.144 |
| ACCGCAUUGGGAUGAUCCCAAUGCGCUGGUCGAGGACCGGUACGGCCGCCACUCGUCCAGUGAUGUUGGACUAGGGCAACUGAAG [Bileesma] | 0.519 | 0.27 | 0.261 | 0.303 | 0.109 |
| GUCCCAGUGAUGUUGGUAGGCGAGCGGGAUACCAGCGAAGACUCACGCCCUUGGCAGCCCACAUAUCCCACGUAGGGAUUAGCUC [Same State - Theophylline A (Freestyle 20)] | 0.336 | 0.359 | 0.378 | 0.357 | 0.351 |
